Data from the supplement of paper PMC10201428.
± gives the standard deviation of the averaged measurements.

B1: library; a variant is named by its letters at N, in order (parent)
chain: AATGTTGTTGATGCAACCATAAAGTGATATTTAATAATTATTTATAATCAGCAACTTAACCACAAAACAACCATATATTGATATNTCACAAAACAACCATAANTTGATATTTTTGTGAATCGAGTATTTCAGCAAAACTACTGCAGTAAGAA

Legend:
[1] = variants of: B1; experiment: relative integration efficiency (T-LR orientation) vs wild-type transposon end (log2 (normalized fold change)); transposon end mutated: left end; higher = more efficient transposition; details: with VchCAST RNA-guided transposition machinery (E. coli BL21(DE3) host, lacZ target)
Description: (§1)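 Pooled, barcoded VchCAST (Tn6677) mini-transposon donor libraries; each variable transposon-end sequence sits in a fixed pDonor mini-transposon context (10-bp barcode and cargo not included). Left- or right-end libraries were co-transformed with pEffector (TniQ-Cascade, TnsABC, lacZ crRNA, T7, 0.1 mM IPTG) into E. coli BL21(DE3) and grown 18 h at 37 C. T-LR and T-RL junction amplicons were sequenced; output/input barcode fold change was normalised to the mean of four wild-type barcodes and log2-transformed. Two biological replicates; zero-count/undetected variants carry floor values (-10 / -15), censored here. Barcode uncoupling by PCR recombination adds noise.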

[2] = variants of: B1; experiment: relative integration efficiency (T-RL orientation) vs wild-type transposon end (log2 (normalized fold change)); transposon end mutated: left end; higher = more efficient transposition; details: with VchCAST RNA-guided transposition machinery (E. coli BL21(DE3) host, lacZ target)
Description: as §1

Variant	relative integration efficiency (log2) [1]	relative integration efficiency (log2) [2]
AATGTTGTTGATGCACCCATAAATTGATAATTAATAATTATTTATAATCAGCAACTTAACCACAAAACAACCATAAGTTGATATTTTACAAAACACCCATAAATTGATATTGCTGTGAATCGAGTATTTCAGCAAAACTACTGCAGTAAGAA [TA A16C G24T T30A T76A A77G C87T A96C T112G T113C]	0.0498 ± 0.26	-0.0655 ± 0.56
AATGTTGTTGATGCACCCATAAATTGATAATTAATAATTATTTATAATCAGCAACTTAACCACAAAACACCCATAAATTGATAATTAACAAAACACCCATAAATTGATATTGCTGTGAATCGAGTATTTCAGCAAAACTACTGCAGTAAGAA [TA A16C G24T T30A A70C T76A T84A C87A A96C T112G T113C]	-0.489 ± 0.88	0.259 ± 0.14
AATGTTGTTGATGCACCCATAAATTGATAATTAATAATTATTTATAATCAGCAACTTAACCACAAAACACCCATAAATTGATATTGCACAAAACACCCATAAATTGATATTGCTGTGAATCGAGTATTTCAGCAAAACTACTGCAGTAAGAA [TA A16C G24T T30A A70C T76A T86G A96C T112G T113C]	-0.394 ± 0.73	-0.421 ± 0.27
AATGTTGTTGATGCACCCATAAATTGATAATTAATAATTATTTATAATCAGCAACTTAACCACAAAACACCCATAAATTGATAATTAACAAAACAACCATATATTGATATCTCTGTGAATCGAGTATTTCAGCAAAACTACTGCAGTAAGAA [TA A16C G24T T30A A70C T76A T84A C87A A102T T111C T113C]	-0.517 ± 1.4	-0.107 ± 0.55
AATGTTGTTGATGCACCCATAAATTGATAATTAATAATTATTTATAATCAGCAACTTAACCACAAAACACCCATAAATTGATAATTAACAAAACACCCATAAATTGATAATTATGTGAATCGAGTATTTCAGCAAAACTACTGCAGTAAGAA [TA A16C G24T T30A A70C T76A T84A C87A A96C T110A T113A]	-0.489 ± 0.47	-0.00649 ± 0.34
AATGTTGTTGATGCACCCATAAATTGATAATTAATAATTATTTATAATCAGCAACTTAACCACAAAACAACCATATATTGATATCTCACAAAACAACCATATATTGATATCTCTGTGAATCGAGTATTTCAGCAAAACTACTGCAGTAAGAA [CA A16C G24T T30A A102T T111C T113C]	-0.907 ± 1	-0.887 ± 0.57
AATGTTGTTGATGCACCCATAAATTGATAATTAATAATTATTTATAATCAGCAACTTAACCACAAAACACCCATAAATTGATATTGCACAAAACAACCATATATTGATATCTCTGTGAATCGAGTATTTCAGCAAAACTACTGCAGTAAGAA [TA A16C G24T T30A A70C T76A T86G A102T T111C T113C]	-0.48 ± 1.4	-0.134 ± 0.32
AATGTTGTTGATGCACCCATAAATTGATAATTAATAATTATTTATAATCAGCAACTTAACCACAAAACACCCATAAATTGATATTGCACAAAACAACCATAAAATGATAATTATGTGAATCGAGTATTTCAGCAAAACTACTGCAGTAAGAA [TA A16C G24T T30A A70C T76A T86G T104A T110A T113A]	-0.858 ± 0.25	-0.764 ± 0.36
AATGTTGTTGATGCAACCATAAAGTGATATTTAATAATTATTTATAATCAGCAACTTAACCACAAAACAACCATATATTGATATCTCACAAAACAACCATAAATTGATATTTTTGTGAATCGAGTATTTCAGCAAAACTACTGCAGTAAGAA [CA]	0.637 ± 0.24	0.299 ± 0.068
AATGTTGTTGATGCACCCATAAATTGATAATTAATAATTATTTATAATCAGCAACTTAACCACAAAACAACCATAAGTTGATATTTTACAAAACACCCATAAATTGATAATTATGTGAATCGAGTATTTCAGCAAAACTACTGCAGTAAGAA [TA A16C G24T T30A T76A A77G C87T A96C T110A T113A]	0.1 ± 1.2	-0.0467 ± 0.48
AATGTTGTTGATGCACCCATAAATTGATAATTAATAATTATTTATAATCAGCAACTTAACCACAAAACACCCATAAATTGATATTGCACAAAACACCCATAAATTGATAATTATGTGAATCGAGTATTTCAGCAAAACTACTGCAGTAAGAA [TA A16C G24T T30A A70C T76A T86G A96C T110A T113A]	-0.0192 ± 0.24	-0.213 ± 0.29
AATGTTGTTGATGCACCCATAAATTGATAATTAATAATTATTTATAATCAGCAACTTAACCACAAAACAACCATAAGTTGATATTTTACAAAACAACCATAAAGTGATATTTATGTGAATCGAGTATTTCAGCAAAACTACTGCAGTAAGAA [TA A16C G24T T30A T76A A77G C87T T104G T113A]	-0.204 ± 0.73	-0.483 ± 0.46
AATGTTGTTGATGCACCCATAAATTGATAATTAATAATTATTTATAATCAGCAACTTAACCACAAAACACCCATAAATTGATATTGCACAAAACAACCATAAAGTGATATTTATGTGAATCGAGTATTTCAGCAAAACTACTGCAGTAAGAA [TA A16C G24T T30A A70C T76A T86G T104G T113A]	-0.388 ± 0.33	-0.652 ± 0.39
AATGTTGTTGATGCACCCATAAATTGATAATTAATAATTATTTATAATCAGCAACTTAACCACAAAACACCCATAAATTGATAATTAACAAAACAACCATAAAGTGATATTTATGTGAATCGAGTATTTCAGCAAAACTACTGCAGTAAGAA [TA A16C G24T T30A A70C T76A T84A C87A T104G T113A]	0.223 ± 0.78	-0.109 ± 0.46
AATGTTGTTGATGCACCCATAAATTGATAATTAATAATTATTTATAATCAGCAACTTAACCACAAAACACCCATAAATTGATAATTAACAAAACAACCATAAAATGATAATTATGTGAATCGAGTATTTCAGCAAAACTACTGCAGTAAGAA [TA A16C G24T T30A A70C T76A T84A C87A T104A T110A T113A]	-0.0907 ± 0.0099	0.0016 ± 0.4
AATGTTGTTGATGCACCCATAAATTGATAATTAATAATTATTTATAATCAGCAACTTAACCACAAAACAACCATAAGTTGATATTTTACAAAACAACCATATATTGATATCTCTGTGAATCGAGTATTTCAGCAAAACTACTGCAGTAAGAA [TA A16C G24T T30A T76A A77G C87T A102T T111C T113C]	-1.05 ± 1.4	-0.994 ± 0.46
AATGTTGTTGATGCACCCATAAATTGATAATTAATAATTATTTATAATCAGCAACTTAACCACAAAACAACCATAAGTTGATATTTTACAAAACAACCATAAAATGATAATTATGTGAATCGAGTATTTCAGCAAAACTACTGCAGTAAGAA [TA A16C G24T T30A T76A A77G C87T T104A T110A T113A]	-0.222 ± 0.22	-0.901 ± 0.53
AATGTTGTTGATGCACCCATAAATTGATAATTAATAATTATTTATAATCAGCAACTTAACCACAAAACAACCATATATTGATATCTCACAAAACACCCATAAATTGATAATTATGTGAATCGAGTATTTCAGCAAAACTACTGCAGTAAGAA [CA A16C G24T T30A A96C T110A T113A]	-0.499 ± 0.66	-0.208 ± 0.19
AATGTTGTTGATGCACCCATAAATTGATAATTAATAATTATTTATAATCAGCAACTTAACCACAAAACAACCATATATTGATATCTCACAAAACACCCATAAATTGATATTGCTGTGAATCGAGTATTTCAGCAAAACTACTGCAGTAAGAA [CA A16C G24T T30A A96C T112G T113C]	-0.699 ± 0.71	-0.628 ± 0.18
